Results taken from paper PMC11868609 (Communications Biology, 2025).
Several values for one entry are separate records, joined by “and”; a condition that tells them apart may be missing. Equal values may be shown once.

B1: VapB3 antitoxin (natural protein)
chain: MLSRRTKTIVVCTLVCMARLNVYVPDELAERARARGLNVSALTQAAISAELENSATDAWLEGLEPRSTGARHDDVLGAIDAARDEFEA
B2: VapB35 antitoxin (natural protein)
chain: MNEVSIRTLNQETSKVLARVKRGEEINLTERGKVIARIIPASAGPLDSLISTGSVQPARVHGPAPRPTIPMRGGLDSGTLLERMRAEERY
B3: VapC3 toxin (natural protein)
chain: MRASPTSPPEQVVVDASAMVDLLARTSDRCSAVRARLARTAMHAPAHFDAEVLSALGRMQRAGALTVAYVDAALEELRQVPVTRHGLSSLLAGAWSRRDTLRLTDALYVELAETAGLVLLTTDERLARAWPSAHAIG

Experiments:
VapC35 toxin [1] = target: T1, VapC35 toxin (M. tuberculosis, UniProt P9WF67 1-135); assay: SEC-MALS
T1 sequence: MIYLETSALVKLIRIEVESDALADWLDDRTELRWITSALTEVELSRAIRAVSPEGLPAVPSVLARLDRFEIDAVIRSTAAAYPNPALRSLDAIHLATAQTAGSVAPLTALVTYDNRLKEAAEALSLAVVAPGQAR

VapC3 toxin [2] = target: B3; assay: SEC-MALS
VapC35 toxin [3] = target: T1, VapC35 toxin; assay: MST
VapC3 toxin [4] = target: B3; assay: MST
SEC-MALS = target: the molecule itself; assay: SEC-MALS

Binder | stoichiometry N (VapC35 toxin [1]) | stoichiometry N (VapC3 toxin [2]) | Kd (VapC35 toxin [3]) [nM] | Kd (VapC3 toxin [4]) [nM] | stoichiometry N (SEC-MALS) [subunits]
B1 | 0.5 antitoxin chains per toxin chain (2:4) and 1 antitoxin chains per toxin chain (4:4) | 0.5 antitoxin chains per toxin chain (2:4) and 1 antitoxin chains per toxin chain (4:4) | ~14 | ~7 | 
B2 | 0.5 antitoxin chains per toxin chain (2:4) and 1 antitoxin chains per toxin chain (4:4) |  | 1 |  | 
B3 |  |  |  |  | 2
